According to the supplement of paper PMC12042874:
± gives the uncertainty stated by the source.

Test: amyloid nucleation score (Sup35N fusion, yeast selection) (log enrichment); library NNK2; higher = more nucleation; inactive = no reads after selection
Outline: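 In psi-negative yeast, Sup35N fusions carrying peptides of 20 random codons were induced with 100 μM copper sulfate for 24 hours. The cells then grew 7 days at 30°C on medium lacking adenine and uracil, and plasmid inserts from input and output were Illumina-sequenced, excluding sequences with under 100 input reads. Nucleation score is the DiMSum log enrichment of output over input reads, centred on the mode score of non-aggregating sequences.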

| Substance | amyloid nucleation score |
| --- | --- |
| QSTYCQRRCVC | 0.042 ± 0.63 |
| QSVYMFRKNNDFPRGTAGSQ | -0.883 ± 1.1 |
| QTNGGEGQ | 0.705 ± 0.24 |
| QTVTCHNNRYVFRLSTMC | 0.71 ± 0.41 |
| QVSFEFNRLMGCMLKMTMMT | -0.308 ± 0.49 |
| QWIWSHSNHNSWIPGSGVVD | -1.13 ± 0.76 |
| QWNMRAAQCTTNS | 0.722 ± 0.34 |
| QYGHCAPDFGSTLLGISST | -0.601 ± 0.39 |
| QYVLLTLCVRIIHGSND | inactive |
| QYVPVLGPACMQLMRYNCAD | -0.177 ± 0.4 |
| QYYVGYLT | -0.738 ± 0.61 |
| RACADGTSEPNAVALCLNAV | 0.832 ± 0.43 |
| RADTRFVAMGFGCRNVKPAV | -0.296 ± 0.54 |
| RALLW | -0.094 ± 1 |
| RAQRLP | -0.241 ± 0.55 |
| RARARHDLRGQRKVLRDRRF | 0.849 ± 0.5 |
| RARGIV | -0.664 ± 0.55 |
| RARIWALGYSLEEIRRGLED | 3.19 ± 0.11 |
| RAWETNFRVTTLDCNNYSSS | inactive |
| RAWKSPYCLNTRMSTEGHEY | 0.348 ± 0.48 |
| RAYFTSKMCIRQTWTEKILY | 5.13 ± 0.052 |
| RCDLWLSYCQPLNVFLYWLV | 0.313 ± 0.65 |
| RCGASSCNRLGPPMLNNRAM | -1.6 ± 0.75 |
| RCGEVRYPCTDVYILGFRSV | -0.437 ± 0.63 |
| RCGSHMNLRYISAR | 4.398 ± 0.04 |

| Substance | amyloid nucleation score |
| --- | --- |
| RCPRSKLVIMDRASVLEGGR | 0.559 ± 0.32 |
| RCSDRKRRFSYSNWYGHGYG | -0.448 ± 0.48 |
| RCTGVMPV | -0.072 ± 1.1 |
| RCVSRTR | 0.147 ± 1.1 |
| RCYVFKLSFGDTQCELFRIT | 6.406 ± 0.049 |
| RDARNKFCDGLTVGILGACM | -0.368 ± 0.29 |
| RDFVE | -0.386 ± 0.56 |
| RDHLFCG | 0.654 ± 0.16 |
| RDIFILSLLDRMSEGTKRIR | 3.86 ± 0.076 |
| RDIGKYRMYDLTKVRAITLT | -0.353 ± 0.35 |
| RDLARTMI | 1.67 ± 0.34 |
| RDMHLGRTEFVARYWELFRY | -0.473 ± 0.78 |
| RDMWKVNHGNTACIGSYRSV | 0.671 ± 0.35 |
| RDRRASYLVVASPTAGLHMV | 3.34 ± 0.078 |
| RDSVCMTRLDMGLDCEWVFG | 1.57 ± 0.36 |
| REAMTCIFDLKYAGLASVWW | -0.532 ± 1 |
| RERVFIGNGWTRLSRARGQA | -1.15 ± 0.62 |
| REVLWCLPDQGELPGGVTFG | 2.44 ± 0.08 |
| REVTNLYVVGGSDCTLIGGM | 3.75 ± 0.097 |
| RFCGVVLSHSSD | 7.913 ± 0.03 |
| RFDWVA | -0.038 ± 0.45 |
| RFFFYGLGMFYIETFYLLWF | inactive |
| RFFGLAKMRMLVKCQ | 0.043 ± 0.65 |
| RFFVYWFVFLCRLNGCVLWT | -0.689 ± 0.4 |
| RFGLGINLLIGVRLLCLALL | 0.043 ± 1 |

| Substance | amyloid nucleation score |
| --- | --- |
| RFGRSQVRAKCRVDDDRWIR | 4.63 ± 0.071 |
| RFICSAPAVPILIICWS | -1.65 ± 0.76 |
| RFLLVRSCQAISNRGNGLRE | 5.08 ± 0.042 |
| RFLSYTSCLEMIVFCGRVQG | 0.207 ± 0.23 |
| RFMVSRYFISGPIIVSC | 0.284 ± 1.1 |
| RFPLGCKMSVTGPFHMTHHA | 1.29 ± 0.38 |
| RFSYFFHVLMRGRNYVQATG | inactive |
| RFYRIDAKVAYQWAYQF | 3.94 ± 0.12 |
| RGCGFRIDVGKRWRNRIKSV | inactive |
| RGCMEVWVLYQSNALSM | 4.18 ± 0.071 |
| RGDHDCW | 0.77 ± 0.32 |
| RGDSATLVGCNVVMGRRFSL | 4.32 ± 0.099 |
| RGFNGSLR | 0.552 ± 0.4 |
| RGFRGRFVFGRT | -0.183 ± 0.49 |
| RGFWRVFGCRHIVATPFEVE | 8.675 ± 0.058 |
| RGGSTPYYNWSAGDGWKKDK | 2.86 ± 0.065 |
| RGHSALFTNFCGTMCGVVDG | 0.148 ± 1 |
| RGINVGGWLSLGFTGAVHSL | 3.4 ± 0.12 |
| RGKSKYSRLGWPGNLEHKGL | 0.388 ± 0.46 |
| RGLLHFIFVITQYKGIYSNV | inactive |
| RGMVLS | -0.129 ± 1.1 |
| RGSSALDE | 0.382 ± 0.35 |
| RGTMVWTDCFMCLGLYKKVY | -0.896 ± 0.56 |
| RGTNQSSVSMRGAL | 0.523 ± 0.36 |
| RGTVVTGF | 1.3 ± 0.44 |

| Substance | amyloid nucleation score |
| --- | --- |
| RGWCLDRPQYNVFRAMSRSL | 0.066 ± 1 |
| RGYFPFYNR | -0.907 ± 0.65 |
| RHLHYRRYKIAAKGLIVFMN | 3.95 ± 0.067 |
| RHSCFICFNVLVICGLNLSL | 5.927 ± 0.037 |
| RHYLLFGWIVSPKVELFSPS | 0.895 ± 0.81 |
| RICVRCPSYYTMWLWCLRFL | inactive |
| RIFMWAYLAYCDNISEVRRR | -0.554 ± 1 |
| RILFWSYA | -0.407 ± 0.48 |
| RIMTPWIGRGRRAHIFLHLW | 1.06 ± 0.29 |
| RINKGISGRGSD | 0.582 ± 0.57 |
| RINMPTYLLNWFSCHNYRFS | 3.98 ± 0.093 |
| RIQSSFFHCC | 7.825 ± 0.036 |
| RIRASKPVFKAFLTPGSYLF | -1.87 ± 1 |
| RIRHCGQFYSMHGKRRIATH | 1.17 ± 0.34 |
| RISRFMPCSRS | 1.11 ± 0.52 |
| RIVRQSVYQELFYFGQRGSL | 4.19 ± 0.072 |
| RKFFSIVRFCA | inactive |
| RKGSTGRDISSNSYIVY | inactive |
| RKILVKMNYFMRHLMNCVTE | inactive |
| RKIMNGKV | -0.414 ± 0.64 |
| RKLGYFLRLRKKATHGRLLV | 5.5 ± 0.067 |
| RKLRVNWERCFHVSEAGLKV | 0.057 ± 1.1 |
| RKNSLHTMWMGKMVCSCFKL | 5.69 ± 0.063 |
| RKNSWDISHPAGTCNIRFIL | 0.339 ± 0.61 |
| RKWLISHPFLRRRGLSSLVF | 0.99 ± 0.2 |

| Substance | amyloid nucleation score |
| --- | --- |
| RLCAWEVNPARSKAGAV | 0.886 ± 0.57 |
| RLCGV | -1.17 ± 0.55 |
| RLCWLEGVIVYRIFGGKLGV | -1.33 ± 0.44 |
| RLFLSSNST | -1.49 ± 0.54 |
| RLFTRANCIHFRERKVRKIH | 0.078 ± 0.29 |
| RLGFISRSNLVANDVGKIFL | inactive |
| RLHRTILHVSRTGQFGAHQC | 0.989 ± 0.35 |
| RLKAPLPYDEIFQLFVIGEI | 0.698 ± 0.8 |
| RLKELRQDIPVMPNRQL | 1.51 ± 0.3 |
| RLLFSDCFLVFLPMGCFAFF | 3.69 ± 0.07 |
| RLLLCLRLSY | 2.7 ± 0.12 |
| RLLLLPTSLLYSKSWCYSLL | -0.622 ± 0.27 |
| RLLNTAVLVANESNQNARDR | -0.245 ± 0.29 |
| RLMVWSSL | 1.87 ± 0.38 |
| RLRDRNDHVLRCSHYWIQDW | 0.956 ± 0.57 |
| RLRSILLSWCCRFGGSQLRA | 0.581 ± 0.39 |
| RLSAHPVAAVLWG | 1.49 ± 0.36 |
| RLSENFLRWSDVTIQSRLFG | 2.49 ± 0.15 |
| RLSEVTKDYVGTCNLDRLS | -0.157 ± 0.29 |
| RLSLQTVRLPLLYIWDEDSW | 3.43 ± 0.15 |
| RLSNELKRMVYSDQVQGYSR | -0.357 ± 0.48 |
| RLSPPRNWLVRRRRIFNGLL | -0.757 ± 0.76 |
| RLTFSSIVTGGLQFKTLL | 2.75 ± 0.1 |
| RLTPYTFTWSVFEMFNLRMP | -1.09 ± 0.49 |
| RLTYNKYLTWNCYVFLSHAL | -0.464 ± 1.1 |

| Substance | amyloid nucleation score |
| --- | --- |
| RLVIGT | 2.41 ± 0.11 |
| RLVYGLFAYKF | 5.29 ± 0.037 |
| RLWNSGCLS | -0.916 ± 0.76 |
| RLWTCLEVLKFSGGLIASMY | -1.05 ± 0.44 |
| RMCLSVVNWSSRSHRSFHQP | 3.81 ± 0.051 |
| RMGFWSLGSSSYNWYKTCVL | 0.043 ± 0.74 |
| RMPVLSCDCRFFYVLSRVNE | -0.566 ± 1 |
| RMSIICFALKYILYRWMFRL | 0.988 ± 0.74 |
| RMSVRLKVVHLDAIIVLVLG | 0.877 ± 0.8 |
| RMWCLGLDPLYTENKGSSDA | -0.427 ± 1.1 |
| RMWCQVKS | -0.236 ± 0.53 |
| RMYLRSIVKSLMAWQRLGRI | -0.545 ± 0.55 |
| RNAQDKESKIGTVSDSNHWV | 0.107 ± 0.36 |
| RNGLILCLGEVVMSSMESVT | -0.646 ± 0.61 |
| RNGVNRLELGFLIETLHNAC | 4.622 ± 0.038 |
| RNLCGFGCVTFRSVLL | 0.279 ± 0.65 |
| RNMVVGVGRRP | -0.15 ± 0.45 |
| RNRSGVMW | 0.276 ± 1 |
| RNSDGPLCSDGVVHFIRMLV | 0.001 ± 0.65 |
| RNSPSRKNL | -0.415 ± 0.36 |
| RNTNSANVKSCSMVRNRVWC | 0.604 ± 0.66 |
| RNYHIQYIAVRVLIPASA | 5 ± 0.068 |
| RNYRLRMDGDCGLFFCCGD | 9.348 ± 0.051 |
| RNYVIFTSEAKVAADIPLYL | 2.45 ± 0.21 |
| RPDNSDV | -1.61 ± 0.54 |

| Substance | amyloid nucleation score |
| --- | --- |
| RPFDHANRCRSAVYT | 1.63 ± 0.47 |
| RPKYCQVVAGLVNYGVRLVV | -0.262 ± 0.49 |
| RPMLVVSGGTSVLWDWAASD | 0.422 ± 0.64 |
| RPMWLSGAEKKWLSCWCNCM | 6.013 ± 0.046 |
| RPQKSSARRIVPFMMFWLGN | 0.426 ± 0.36 |
| RPRAWI | 0.428 ± 0.44 |
| RPVDPWLCRKWLVV | inactive |
| RPWHDLLNLHLYGRFMYTIG | 0.415 ± 0.37 |
| RPWLNRAFDVISYYAIMACR | 0.091 ± 0.3 |
| RPWVHTGW | 0.277 ± 0.57 |
| RQDPDSLTLHRLSSGGIR | 0.366 ± 0.64 |
| RQFPGFSSYPTLEINFYICV | 6.76 ± 0.069 |
| RQGFSVSSNRLGVFQSQEPG | -1.05 ± 0.78 |
| RRAILWPNGAN | 0.097 ± 0.37 |
| RRFMYIFYLDYFFKPLLRLN | -0.369 ± 1.1 |
| RRFPRHLASGRMPV | 1.41 ± 0.32 |
| RRFTINFKDK | -1.2 ± 0.78 |
| RRICTGFIRLVGYVYYAAHL | -0.29 ± 0.24 |
| RRIIQCSDEFVLYQCNMLRC | 0.759 ± 0.41 |
| RRISLLFTYYVRQSLSCLIV | 4.94 ± 0.086 |
| RRLFYRRRQHNILLAYWVWY | 0.524 ± 0.81 |
